# Target: Gal4 DNA-binding domain-Nup1p carboxy-terminal fusion (pSWB11) (yeast, UniProt P20676 655-1076)
# Assay: two-hybrid
# Gal4 DNA-binding domain-Nup1p carboxy-terminal fusion (pSWB11), sequence (P20676 655-1076): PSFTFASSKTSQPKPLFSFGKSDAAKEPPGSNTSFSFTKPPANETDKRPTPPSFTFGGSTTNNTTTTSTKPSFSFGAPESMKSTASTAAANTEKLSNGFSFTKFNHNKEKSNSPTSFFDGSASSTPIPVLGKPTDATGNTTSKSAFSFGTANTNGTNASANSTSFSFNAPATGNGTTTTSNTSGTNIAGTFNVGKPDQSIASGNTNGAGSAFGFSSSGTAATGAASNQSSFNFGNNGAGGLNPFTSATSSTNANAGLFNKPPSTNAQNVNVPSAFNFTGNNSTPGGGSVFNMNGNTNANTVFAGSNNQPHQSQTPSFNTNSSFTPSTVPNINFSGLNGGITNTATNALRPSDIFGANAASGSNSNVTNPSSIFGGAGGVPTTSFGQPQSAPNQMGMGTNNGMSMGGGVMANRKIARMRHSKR
binder,measurement,value
"Gal4 activation domain-Srp1p fusion (pSWB17) (domain or fragment, yeast, UniProt Q02821 30-542, looked up) DELRRRRDTQQVELRKAKRDEALAKRRNFIPPTDGADSDEEDESSVSADQQFYSQLQQELPQMTQQLNSDDMQEQLSATVKFRQILSREHRPPIDVVIQAGVVPRLVEFMRENQPEMLQLEAAWALTNIASGTSAQTKVVVDADAVPLFIQLLYTGSVEVKEQAIWALGNVAGDSTDYRDYVLQCNAMEPILGLFNSNKPSLIRTATWTLSNLCRGKKPQPDWSVVSQALPTLAKLIYSMDTETLVDACWAISYLSDGPQEAIQAVIDVRIPKRLVELLSHESTLVQTPALRAVGNIVTGNDLQTQVVINAGVLPALRLLLSSPKENIKKEACWTISNITAGNTEQIQAVIDANLIPPLVKLLEVAEYKTKKEACWAISNASSGGLQRPDIIRYLVSQGCIKPLCDLLEIADNRIIEVTLDALENILKMGEADKEARGLNINENADFIEKAGGMEKIFNCQQNENDKIYEKAYKIIETYFGEEEDAVDETMAPQNAGNTFGFGSNVNQQFNFN",fold increase in beta-galactosidase activity,> 160 fold

# — PMC2120133 (The Journal of Cell Biology, 1994)
